Experimental data published in article PMC8274477 (Frontiers in Cell and Developmental Biology, 2021).

biological target: T1, OTULIN (OTU deubiquitinase with linear linkage specificity, FAM105B), His-tagged, biotin-labelled (human, UniProt Q96BN8 1-352, biotin (label; sites not stated)); assay: peptide or protein array; HuProt human proteome microarray; 5 ug/5 ml biotin-labelled LUBAC or OTULIN in solution, 1 h at room temperature; Cy5-streptavidin, scanned at 635 nm; BSA as negative control; hits: Z-score >= 3 and I_(Mean_Ratio) >= 1.4; conditions: both partners purified
T1 construct: OTULIN (FAM105B), cDNA in pET28a; also called HIS-OTULIN; source: E. coli BL21 (DE3), purified (His-tag Purification Resin), labelled with biotin; not shown: His6, N-terminal, kept

| Binder | binding result |
| --- | --- |
| BLVRB (natural protein, human, UniProt P30043 1-206, looked up, BLVRB; protein on the human proteome microarray; source: spotted on the HuProt human proteome microarray) MAVKKIAIFGATGQTGLTTLAQAVQAGYEVTVLVRDSSRLPSEGPRPAHVVVGDVLQAADVDKTVAGQDAVIVLLGTRNDLSPTTVMSEGARNIVAAMKAHGVDKVVACTSAFLLWDPTKVPPRLQAVTDDHIRMHKVLRESGLKYVAVMPPHIGDQPLTGAYTVTLDGRGPSRVISKHDLGHFMLRCLTTDEYDGHSTYPSHQYQ | binds |
| BPHL (natural protein, human, UniProt Q86WA6 38-291, looked up, BPHL; protein on the human proteome microarray; source: spotted on the HuProt human proteome microarray) SVTSAKVAVNGVQLHYQQTGEGDHAVLLLPGMLGSGETDFGPQLKNLNKKLFTVVAWDPRGYGHSRPPDRDFPADFFERDAKDAVDLMKALKFKKVSLLGWSDGGITALIAAAKYPSYIHKMVIWGANAYVTDEDSMIYEGIRDVSKWSERTRKPLEALYGYDYFARTCEKWVDGIRQFKHLPDGNICRHLLPRVQCPALIVHGEKDPLVPRFHADFIHKHVKGSRLHLMPEGKHNLHLRFADEFNKLAEDFLQ | binds |
| C1orf74 (natural protein, human, UniProt Q96LT6 1-269, looked up, C1orf74; protein on the human proteome microarray; source: spotted on the HuProt human proteome microarray) MLLLDLMSSPSPQLLVAAAQQTLGMGKRRSPPQAICLHLAGEVLAVARGLKPAVLYDCNCAGASELQSYLEELKGLGFLTFGLHILEIGENSLIVSPEHVCQHLEQVLLGTIAFVDVSSCQRHPSVCSLDQLQDLKALVAEIITHLQGLQRDLSLAVSYSRLHSSDWNLCTVFGILLGYPVPYTFHLNQGDDNCLALTPLRVFTARISWLLGQPPILLYSFSVPESLFPGLRDILNTWEKDLRTRFRTQNDFADLSISSEIVTLPAVAL | binds |
| TTC9 (natural protein, human, UniProt Q92623 1-222, looked up, TTC9; protein on the human proteome microarray; source: spotted on the HuProt human proteome microarray) MERKGSAAGAKGNPSPPAAGEGQRPPPPLCVPGGGGGAPARGQVGAAAEPAELIRRAHEFKSQGAQCYKDKKFREAIGKYHRALLELKGLLPPPGERERDSRPASPAGALKPGRLSEEQSKTVEAIEIDCYNSLAACLLQAELVNYERVKEYCLKVLKKEGENFKALYRSGVAFYHLGDYDKALYYLKEARTQQPTDTNVIRYIQLTEMKLSRCSQREKEAM | binds |
| C21orf59 (natural protein, human, UniProt P57076 1-290, looked up, C21orf59; protein on the human proteome microarray; source: spotted on the HuProt human proteome microarray) MVLLHVKRGDESQFLLQAPGSTELEELTVQVARVYNGRLKVQRLCSEMEELAEHGIFLPPNMQGLTDDQIEELKLKDEWGEKCVPSGGAVFKKDDIGRRNGQAPNEKMKQVLKKTIEEAKAIISKKQVEAGVCVTMEMVKDALDQLRGAVMIVYPMGLPPYDPIRMEFENKEDLSGTQAGLNVIKEAEAQLWWAAKELRRTKKLSDYVGKNEKTKIIAKIQQRGQGAPAREPIISSEEQKQLMLYYHRRQEELKRLEENDDDAYLNSPWADNTALKRHFHGVKDIKWRPR | binds |
| XAGE3 (natural protein, human, UniProt Q8WTP9 1-111, looked up, XAGE3; protein on the human proteome microarray; source: spotted on the HuProt human proteome microarray) MIWRGRSTYRPRPRRSVPPPELIGPMLEPGDEEPQQEEPPTESRDPAPGQEREEDQGAAETQVPDLEADLQELSQSKTGGECGNGPDDQGKILPKSEQFKMPEGGDRQPQV | binds |

Other lines, results leading:

| binding result | Binder |
| --- | --- |
| binds | WBP2NL (natural protein, human, UniProt Q6ICG8 1-309, looked up, WBP2NL; protein on the human proteome microarray; source: spotted on the HuProt human proteome microarray) MAVNQSHTENRRGALIPNGESLLKRSPNVELSFPQRSEGSNVFSGRKTGTLFLTSYRVIFITSCSISDPMLSFMMPFDLMTNLTVEQPVFAANFIKGTIQAAPYGGWEGQATFKLVFRNGDAIEFAQLMVKAASAAARGFPLRTLNDWFSSMGIYVITGEGNMCTPQMPCSVIVYGAPPAGYGAPPPGYGAPPAGYGAQPVGNEGPPVGYRASPVRYGAPPLGYGAPPAGYGAPPLGYGAPPLGYGTPPLGYGAPPLGYGAPPAGNEGPPAGYRASPAGSGARPQESTAAQAPENEASLPSASSSQVHS |
| binds | ALKBH3 (natural protein, human, UniProt Q96Q83 1-286, looked up, ALKBH3; protein on the human proteome microarray; source: spotted on the HuProt human proteome microarray) MEEKRRRARVQGAWAAPVKSQAIAQPATTAKSHLHQKPGQTWKNKEHHLSDREFVFKEPQQVVRRAPEPRVIDREGVYEISLSPTGVSRVCLYPGFVDVKEADWILEQLCQDVPWKQRTGIREDITYQQPRLTAWYGELPYTYSRITMEPNPHWHPVLRTLKNRIEENTGHTFNSLLCNLYRNEKDSVDWHSDDEPSLGRCPIIASLSFGATRTFEMRKKPPPEENGDYTYVERVKIPLDHGTLLIMEGATQADWQHRVPKEYHSREPRVNLTFRTVYPDPRGAPW |
| binds | TST (natural protein, human, UniProt Q16762 1-297, looked up, TST; protein on the human proteome microarray; source: spotted on the HuProt human proteome microarray) MVHQVLYRALVSTKWLAESIRTGKLGPGLRVLDASWYSPGTREARKEYLERHVPGASFFDIEECRDTASPYEMMLPSEAGFAEYVGRLGISNHTHVVVYDGEHLGSFYAPRVWWMFRVFGHRTVSVLNGGFRNWLKEGHPVTSEPSRPEPAVFKATLDRSLLKTYEQVLENLESKRFQLVDSRSQGRFLGTEPEPDAVGLDSGHIRGAVNMPFMDFLTEDGFEKGPEELRALFQTKKVDLSQPLIATCRKGVTACHVALAAYLCGKPDVAVYDGSWSEWFRRAPPESRVSQGKSEKA |
| binds | ALKBH2 (natural protein, human, UniProt Q6NS38 1-261, looked up, ALKBH2; protein on the human proteome microarray; source: spotted on the HuProt human proteome microarray) MDRFLVKGAQGGLLRKQEEQEPTGEEPAVLGGDKESTRKRPRREAPGNGGHSAGPSWRHIRAEGLDCSYTVLFGKAEADEIFQELEKEVEYFTGALARVQVFGKWHSVPRKQATYGDAGLTYTFSGLTLSPKPWIPVLERIRDHVSGVTGQTFNFVLINRYKDGCDHIGEHRDDERELAPGSPIASVSFGACRDFVFRHKDSRGKSPSRRVAVVRLPLAHGSLLMMNHPTNTHWYHSLPVRKKVLAPRVNLTFRKILLTKK |
| binds | C11orf1 (natural protein, human, UniProt Q9H5F2 1-150, looked up, C11orf1; protein on the human proteome microarray; source: spotted on the HuProt human proteome microarray) MAASQCLCCSKFLFQRQNLACFLTNPHCGSLVNADGHGEVWTDWNNMSKFFQYGWRCTTNENTYSNRTLMGNWNQERYDLRNIVQPKPLPSQFGHYFETTYDTSYNNKMPLSTHRFKREPHWFPGHQPELDPPRYKCTEKSTYMNSYSKP |
| binds | TTC9C (natural protein, human, UniProt Q8N5M4 1-171, looked up, TTC9C; protein on the human proteome microarray; source: spotted on the HuProt human proteome microarray) MEKRLQEAQLYKEEGNQRYREGKYRDAVSRYHRALLQLRGLDPSLPSPLPNLGPQGPALTPEQENILHTTQTDCYNNLAACLLQMEPVNYERVREYSQKVLERQPDNAKALYRAGVAFFHLQDYDQARHYLLAAVNRQPKDANVRRYLQLTQSELSSYHRKEKQLYLGMFG |
| binds | C17orf82 (natural protein, human, UniProt Q86X59 1-251, looked up, C17orf82; protein on the human proteome microarray; source: spotted on the HuProt human proteome microarray) MGRPLEGQPLRALDLYPEPAFLRSGKDPKSSPASSPSFAVLGPEVRSTGGQAGSRRRPSAPCSQDRAAAEGAPALLGGSPSSGSPGHPPGSAFGVEAGCRALNVSEHARGGFALGLPFGLSGGAYLFLLLDGAGDPKPTPEAPISSADGRAWFPSESSWQLPQLPAGSTSGSEPRARPGLGPRQLLTGPRDGAAGQGPGRGLTARLGREREIDCGPRQAGHGGTATDTGRAGSGARHRPPRDRGTPGLRTH |
| binds | TK1 (natural protein, human, UniProt P04183 1-234, looked up, TK1; protein on the human proteome microarray; source: spotted on the HuProt human proteome microarray) MSCINLPTVLPGSPSKTRGQIQVILGPMFSGKSTELMRRVRRFQIAQYKCLVIKYAKDTRYSSSFCTHDRNTMEALPACLLRDVAQEALGVAVIGIDEGQFFPDIVEFCEAMANAGKTVIVAALDGTFQRKPFGAILNLVPLAESVVKLTAVCMECFREAAYTKRLGTEKEVEVIGGADKYHSVCRLCYFKKASGQPAGPDNKENCPVPGKPGEAVAARKLFAPQQILQCSPAN |
| binds | ANXA3 (natural protein, human, UniProt P12429 1-323, looked up, ANXA3; protein on the human proteome microarray; source: spotted on the HuProt human proteome microarray) MASIWVGHRGTVRDYPDFSPSVDAEAIQKAIRGIGTDEKMLISILTERSNAQRQLIVKEYQAAYGKELKDDLKGDLSGHFEHLMVALVTPPAVFDAKQLKKSMKGAGTNEDALIEILTTRTSRQMKDISQAYYTVYKKSLGDDISSETSGDFRKALLTLADGRRDESLKVDEHLAKQDAQILYKAGENRWGTDEDKFTEILCLRSFPQLKLTFDEYRNISQKDIVDSIKGELSGHFEDLLLAIVNCVRNTPAFLAERLHRALKGIGTDEFTLNRIMVSRSEIDLLDIRTEFKKHYGYSLYSAIKSDTSGDYEITLLKICGGDD |
| binds | TMEM116 (natural protein, human, UniProt Q8NCL8 1-245, looked up, TMEM116; protein on the human proteome microarray; source: spotted on the HuProt human proteome microarray) MKHTQSGQSTSPLVIDYTCRVCQMAFVFSSLIPLLLMTPVFCLGNTSECFQNFSQSHKCILMHSPPSAMAELPPSANTSVCSTLYFYGIAIFLGSFVLSLLTIMVLLIRAQTLYKKFVKSTGFLGSEQWAVIHIVDQRVRFYPVAFFCCWGPAVILMIIKLTKPQDTKLHMALYVLQALTATSQGLLNCGVYGWTQHKFHQLKQEARRDADTQTPLLCSQKRFYSRGLNSLESTLTFPASTSTIF |
